The term Kd denotes the free concentration of one partner at which half of the binding sites on the other are occupied at equilibrium, for simple one-to-one binding.

Substitutions are numbered along the chain they refer to.

For test [1], the target named is T1, GST fusion of VPAC1 extracellular loop 3 (human).
T1 construct: also called isolated extracellular loop 3 of the VPAC1 receptor; not shown: glutathione-S-transferase (GST)
T1 chain: PDNFKPEVKMLFE
Briefly: western blot on GST fusion of extracellular loop 3.

The target of test [2] is T2, GST-VPAC1 fusion protein (full length human VPAC1) (human, UniProt P08515 1-218 = GST).
T2 construct: also called recombinant VPAC1
Briefly: SPR (BIAcore 1000), GST-VPAC1 immobilised on CM5, antibody injected, 1:1 Langmuir fit; second batch; second of two batches of murine 23A11. Here is the method: (§1) For kinetic binding analysis of GST-VPAC1 with the GST-VPAC1-antibodies, we used a BIAcore surface plasmon resonance system at 25° C. These interactions were performed on a BIAcore 1000. GST-VPAC1 was covalently immobilized on a CM5 sensorchip (carboxylated dextran matrix) after activation with a 1:1 mixture of 1-ethyl-3-(3-dimethylaminopropyl)carbodiimide and N-hydroxysuccinimide. The remaining active sites on the chip were blocked by 1.0 M ethanolamine-HCl at pH 8.5. To perform binding assays with the GST-VPAC1-antibodies, various concentrations (ranging from 250 nm to 5 nm) of murine 23A11 were injected over the immobilized GST-VPAC-1 at a flow rate of 30 μl/min. This was performed in a running buffer consisting of 0.01 M HEPES at pH 7.4, 0.15M NaCl, 3 mM EDTA and 0.005% Surfactant P20 (or Tween 20). The sensorgrams were evaluated using the BIAevaluation 4.1 software. The rate constants kₐ and kd and the dissociation constant KD were determined by using a global fit with a Langmuir 1:1 binding model with baseline drift.
Background: Surface plasmon resonance follows binding to a sensor surface in real time, without labels.

Test [3] deals with T3, GST fusion of VPAC1 extracellular loop 2 (human).
T3 construct: also called isolated extracellular loop 2 of the VPAC1 receptor; not shown: glutathione-S-transferase (GST)
T3 chain: IHFEDYGCWDTINSSLWW
Put plainly: western blot on GST fusion of extracellular loop 2. In general terms: In western blotting, separated proteins are transferred to a membrane and probed.

In test [4] the target is T4, VPAC1 receptor of mouse bone marrow-derived CD41/61+ megakaryocytes (mouse, UniProt P97751 31-459).
T4 construct: whole, on cells; Detected by immunoblot of megakaryocytes and addressed on living megakaryocytes in the cAMP assays; also called VPAC1 receptor on the murine megakaryocytes
T4 sequence (looked up): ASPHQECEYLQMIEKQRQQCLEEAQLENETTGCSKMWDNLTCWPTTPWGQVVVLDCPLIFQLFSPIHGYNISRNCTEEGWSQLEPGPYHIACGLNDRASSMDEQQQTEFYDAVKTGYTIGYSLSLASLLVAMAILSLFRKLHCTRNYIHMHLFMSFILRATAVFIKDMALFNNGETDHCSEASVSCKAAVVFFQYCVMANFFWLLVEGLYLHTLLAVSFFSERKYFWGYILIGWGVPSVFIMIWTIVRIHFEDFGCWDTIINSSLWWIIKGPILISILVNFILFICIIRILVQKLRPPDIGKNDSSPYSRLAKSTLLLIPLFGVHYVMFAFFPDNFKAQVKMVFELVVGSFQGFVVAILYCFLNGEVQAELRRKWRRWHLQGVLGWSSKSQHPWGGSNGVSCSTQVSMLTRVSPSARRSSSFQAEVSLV
Briefly: immunoblot of mouse bone marrow megakaryocytes.

The target in test [5] is T2, GST-VPAC1 fusion protein (full length …). Put plainly: SPR (BIAcore 1000), GST-VPAC1 immobilised on CM5, antibody injected, 1:1 Langmuir fit; first batch; first of two batches of murine 23A11. Here is the method: as §1
Test [6] deals with T5, GST fusion of VPAC1 variant 3-2 (amino acids 123-457 of SEQ ID NO:15) (human, UniProt P32241 123-457).
T5 construct: not shown: GST carrier and the pGEX vector linker
T5 sequence: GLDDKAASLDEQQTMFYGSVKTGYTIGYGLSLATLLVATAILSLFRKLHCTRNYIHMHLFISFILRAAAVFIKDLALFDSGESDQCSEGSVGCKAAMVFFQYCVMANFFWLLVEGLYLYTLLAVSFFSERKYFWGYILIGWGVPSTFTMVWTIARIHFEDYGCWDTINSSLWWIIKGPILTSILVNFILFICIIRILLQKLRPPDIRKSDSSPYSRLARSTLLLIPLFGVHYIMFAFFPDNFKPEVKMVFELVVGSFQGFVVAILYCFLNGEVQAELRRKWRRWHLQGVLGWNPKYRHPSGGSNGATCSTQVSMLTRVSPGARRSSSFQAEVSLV
Briefly: western blot on GST-fused VPAC1 deletion variants. As to the method: (§2) For the epitope mapping of 23A11, several VPAC1 deletion variants were fused to GST and expressed. Binding of 23A11 to the VPAC1 deletion variants was tested by western blotting.
(§3) VPAC1 variant 4-2 (and, to a lesser extent, variant 3-2) was recognized by 23A11. Since this protein contains the second as well as the third extracellular loop of VPAC1, both loops (extracellular loop 2: SEQ ID NO:1; extracellular loop 3:SEQ ID NO:1) were made as GST fusion proteins and tested in western blotting. The murine antibody 23A11 was binding to each of these loops.

The target in test [7] is T6, GST fusion of VPAC1 variant 4-2 (amino acids 231-457 of SEQ ID NO:15) (human, UniProt P32241 231-457).
T6 construct: not shown: GST carrier and the pGEX vector linker
T6 sequence: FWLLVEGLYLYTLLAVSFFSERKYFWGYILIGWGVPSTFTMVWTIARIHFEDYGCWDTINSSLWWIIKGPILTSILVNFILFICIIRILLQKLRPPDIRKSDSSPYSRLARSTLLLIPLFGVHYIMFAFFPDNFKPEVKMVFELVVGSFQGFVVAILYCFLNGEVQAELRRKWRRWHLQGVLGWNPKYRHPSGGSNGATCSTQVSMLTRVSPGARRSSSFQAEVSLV
Put plainly: western blot on GST-fused VPAC1 deletion variants. As to the method: as §2, §3

Test [8] deals with T2, GST-VPAC1 fusion protein (full length …). Briefly: SPR (BIAcore 1000), GST-VPAC1 immobilised on CM5, 1:1 Langmuir fit; humanized 23A11, isotype not stated.

B1: murine anti-VPAC1 monoclonal antibody 23A11 (antibody, V domains shown)
VH: EVQLQESGPSLVKPSQTLSLTCSVTGDSITSGYWNWIRKFPGNKLEYMGYIRYSGSTYYSPALKSRFSITRDTSKNQYYLQLNSVTTEDTATYYCSNWAYWGQGTLVTVSA
VL: DIVITQDELSNPVTSGESVSISCRSSKSLLYKDGKTYLNWFLQRPGQSPQLLIYLMSTRASGVSDRFSGSGSGTDFTLEISRVKAEDVGVYYCQQLVEYPLTFGAGTKLELK
notes: Mouse monoclonal antibody from a hybridoma; also called murine 23A11; anti-VPAC1 receptor antibody 23A11
On to B1, for which the binding result in test [1], in test [3], in test [4], in test [6] and in test [7] was “binds” throughout. Moreover, the results for the dissociation constant Kd in test [2] and in test [5] were 19.9 nM and 28.3 nM, respectively.

B2: humanized anti-VPAC1 monoclonal antibody 23A11 (antibody, V domains shown)
VH: EVQLQESGPGLVKPSQTLSLTCTVSGDSITSGYWNWIRKHPGKGLEYMGYIRYSGSTYYSPSLKSRFTISRDTSKNQYSLKLSSVTAADTATYYCSNWAYWGQGTLVTVSA
VL: B1 VL with D7S, E8P, N11L, S15P, S18P, E79K, K84E, A105Q, L111I
notes: also called h23A11; rhu23A11
Take B2: in test [8], the dissociation constant Kd is 9.82 nM.
